Holding throughout (assay): protection of ribosome-bound eEF2 from [14C]ADP-ribosylation by diphtheria toxin
The target in experiment [1] is Salt washed yeast 80S ribosomes with ribosomal protein L3 K236A (yeast (S. cerevisiae)) (UniProt P14126).
Experiment [2] has as its target Salt washed yeast 80S ribosomes with ribosomal protein L3 R232A (yeast (S. cerevisiae)) (UniProt P14126).
Experiment [3] addresses Salt washed yeast 80S ribosomes with ribosomal protein L3 K237A (yeast (S. cerevisiae)) (UniProt P14126).
Experiment [4] addresses Salt washed yeast 80S ribosomes with wild-type ribosomal protein L3 (yeast (S. cerevisiae)) (UniProt P14126).
For experiment [5], the target named is Salt washed yeast 80S ribosomes with ribosomal protein L3 K236A/R247A (yeast (S. cerevisiae)) (UniProt P14126).
For experiment [6], the target named is Salt washed yeast 80S ribosomes with ribosomal protein L3 K241A/R244A (yeast (S. cerevisiae)) (UniProt P14126).
The target of experiment [7] is Salt washed yeast 80S ribosomes with ribosomal protein L3 K236A/K237A (yeast (S. cerevisiae)) (UniProt P14126).
The target of experiment [8] is Salt washed yeast 80S ribosomes with ribosomal protein L3 R247A (yeast (S. cerevisiae)) (UniProt P14126).

What is called Kd is the free concentration of one partner at which half of the binding sites on the other are occupied at equilibrium, for simple one-to-one binding.

Consider “Eukaryotic elongation factor 2 (eEF2), 6xHis-tagged (from UniProt P32324 1-842) (natural protein)”, for which the Kd in experiment [1] was determined as 312 nM; in experiment [2], 341 nM; in experiment [3], 342 nM; in experiment [4] it was 383 nM; in experiment [5], 110 nM; in experiment [6] it was 229 nM. Moreover, the values for the Kd in experiment [7] and in experiment [8] were 84 nM and 46.6 nM, respectively.

(Values after PMC2995063.)
